{"source": "patent US20220378949A1", "about": "“NEUROTROPHIN RECEPTOR BINDING CONJUGATE COMPOSITIONS, METHODS OF USE AND METHODS OF MAKING THEREOF” (priority 2019, published 2022)", "molecules": {"B1": {"name": "800-rhBDNF: NIR dye in the 800 region directly attached to rhBDNF (conjugate, UniProt P23560 19-247, looked up)", "Neurotrophic factor BDNF …": "APMKEANIRGQGGLAYPGVRTHGTLESVNGPKAGSRGLTSLADTFEHVIEELLDEDQKVRPNEENNKDADLYTSRVMLSSQVPLEPPLLFLLEEYKNYLDAANMSMRVRRHSDPARRGELSVCDSISEWVTAADKKTAVDMSGGTVTVLEKVPVSKGQLKQYFYETKCNPMGYTKEGCRGIDKRHWNSQCRTTQSYVRALTMDSKKRIGWRFIRIDTSCVCTLTIKRGR", "modifications": "NIR 800 dye", "notes": "NIR dye in the 800 region directly attached to rhBDNF"}, "B2": {"name": "488-mNGF: fluorescent dye Alexa Fluor 488 attached to murine NGF (conjugate, UniProt P01139 122-241, looked up)", "Beta-nerve growth factor": "SSTHPVFHMGEFSVCDSVSVWVGDKTTATDIKGKEVTVLAEVNINNSVFRQYFFETKCRASNPVESGCRGIDSKHWNSYCTTTHTFVKALTTDEKQAAWRFIRIDTACVCVLSRKATRRG", "modifications": "Alexa Fluor 488 dye", "notes": "fluorescent dye Alexa Fluor 488 attached to murine NGF"}}, "key": {"[1]": {"settings": "administered sub-cutaneously (SQ); cited from earlier work"}, "[2]": {"experiment": "Stability of rhNGF in plasma", "format": "in vitro ADME", "settings": "37° C.", "excerpt": "As an example of an intracellularly active small molecule compound (SMC), the glucocorticoid fluocinolone acetonide (FA) was conjugated using a heterobifunctional linker to rhNGF and rhBDNF, both of which constructs exerted analgesic (anti-inflammatory) activity in vivo. Dorsal Root Ganglia (DRG) in diseases of the peripheral nervous system (PNS) play a fundamental role in chronic pain generally. NGF and BDNF localize due to their selectivity for distinct populations of peripheral neurons by binding to TrkA and TrkB expressed largely in nociceptors and proprioceptors, respectively. In treating forms of pain in which the DRG are involved, either NGF and/or BDNF should deliver intracellularly active FA by axonal transport to subpopulations of sensory neuron cell bodies in DRG and via their central synaptic terminals, into the dorsal horn of the spinal cord. Since TrkB is highly expressed in the neurofilament-1-expressing subpopulation of low-threshold mechanosensory neurons in the DRG, peripherally injected BDNF should deliver FA to the DRG. In treating pain, FA may alter neuronal excitability to be released or diffuse, acting on nearby inflammatory cells e.g. microglia, astrocytes, or satellite glia. rhNGF is stable in plasma for up to 4 days at 37° C."}, "[3]": {"system": "superior cervical ganglia (SCG) neurons", "experiment": "Retrograde axonal transport of 800-rhNGF in Xona microfluidic chambers, LI-COR Odyssey imaging", "format": "cell-based, rat", "settings": "30 ng/mL at distal axons, 48 hours", "excerpt": "(§1) Increasing conjugation leads to decreased protein conjugate solubility. A construct where the active agent has a greater molecular weight and less hydrophilic Dyomics DY-800 Near InfraRed (NIR) dye was attached directly to recombinant human NGF (rhNGF) (FIG. 2). In subsequent studies, we purified DAR sub-species using a (Waters column) reverse phase HPLC (RP-HPLC). […] Cultures were maintained until the axons extended through the channels in the microfluidic chambers to the side without cells plated. FIG. 2B depicts 800-rhNGF, 30 ng/mL was added to the wells where the terminal (distal) axons had extended. 48 hours after addition of 800-rhNGF to distal ends in left chambers, chambers were imaged on a LI-COR Odyssey scanner. […] FIGS. 2C and 2D depict brightfield images of wells containing cell bodies, showing improved visualization of cell clumps for comparison to images containing 800 NIR cell bodies. Neuronal Survival Confirms TrkB Binding Activity is Intact after Synthetic Manipulation."}, "[4]": {"system": "Retinal Ganglion Cells (RGCs)", "experiment": "Neuronal survival of primary Retinal Ganglion Cells with labeled rhBDNF (TrkB binding intact)", "format": "cell-based, rat", "protocol": "Labeled BDNF test articles, either 800-rhBDNF or FA-rhBDNF, were also assessed to as to whether the compositions would sustain neuronal survival by plating conjugates in Retinal Ganglion Cells (RGCs). RGCs were isolated from P6 rats by sequential immune-panning. Retinas are isolated and enzymatically digested by papain followed by mechanical dissociation into a single-cell suspension. Cells are negatively panned to remove macrophages and other nonspecifically adhering cells and then positively panned for RGCs using the Thy1.1 T11D7 hybridoma supernatant.\nas §1\nHigh Performance Liquid Chromatography and mass spectrometry was used to quantify the number of dye molecules attached or crosslinked to rhBDNF (i.e., the ratio of fluorescent dye in the 800 region to rhBDNF)."}, "[5]": {"target": "T1, TrkA receptors (Rattus norvegicus, UniProt P35739)", "T1 construct": "In vitro systems that use primary neurons express Trk receptors on distal ends were used; endogenous in cells", "T1 sequence (P35739 33-799)": "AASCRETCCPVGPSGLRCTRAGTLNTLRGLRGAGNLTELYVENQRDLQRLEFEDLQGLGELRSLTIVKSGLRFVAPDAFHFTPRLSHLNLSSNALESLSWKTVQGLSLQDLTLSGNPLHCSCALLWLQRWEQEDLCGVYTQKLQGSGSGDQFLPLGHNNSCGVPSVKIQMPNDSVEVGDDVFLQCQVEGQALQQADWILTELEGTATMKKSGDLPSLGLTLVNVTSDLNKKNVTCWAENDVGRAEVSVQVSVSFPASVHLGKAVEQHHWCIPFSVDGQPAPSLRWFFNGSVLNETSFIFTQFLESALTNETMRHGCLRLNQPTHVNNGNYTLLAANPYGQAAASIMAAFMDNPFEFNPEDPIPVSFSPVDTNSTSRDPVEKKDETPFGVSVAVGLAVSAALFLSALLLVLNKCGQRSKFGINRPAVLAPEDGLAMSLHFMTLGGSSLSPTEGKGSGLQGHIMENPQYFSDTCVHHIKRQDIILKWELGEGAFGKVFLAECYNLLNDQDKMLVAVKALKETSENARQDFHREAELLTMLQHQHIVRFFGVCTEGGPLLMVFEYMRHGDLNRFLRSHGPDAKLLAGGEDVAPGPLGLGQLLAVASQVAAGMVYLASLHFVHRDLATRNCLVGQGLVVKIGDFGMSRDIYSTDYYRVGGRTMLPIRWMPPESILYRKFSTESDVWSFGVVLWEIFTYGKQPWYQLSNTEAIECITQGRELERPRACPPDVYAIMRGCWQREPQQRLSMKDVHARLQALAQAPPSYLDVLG", "experiment": "Uptake and retrograde transport of fluorescent NGF in compartmented cultures of SCG neurons, competition with unlabelled NGF", "format": "cell-based", "settings": "for Uptake of fluorescent NGF at distal ends of neurons (TrkA-mediated endocytosis): distal axon compartments, SCG neurons", "protocol": "Confirm Trk receptor binding. […] Receptor binding activity where up to 100× unmodified mNGF is co-administered with the Trk binding agent was determined. 488-mNGF (FIG. 1A) is shown in cell bodies, after binding to TrkA, endocytosis and transport to the central chamber of the in vitro system. In FIG. 1B, TrkA was confirmed here by adding 1000 ng/ml unmodified mNGF to compete with 100 ng/ml 488-mNGF for the same TrkA receptors. FIG. 1C: Neurons in compartmented cultures were given approximately 10 ng/mL fNGF (as determined by neuronal survival bioassay), or 10 ng/mL fNGF+100× excess unlabelled NFG (1000 ng/mL) in the distal axon compartments. 24 hours later fluorescence images of the cell bodies were obtained (FIG. 1C). […] Alexa Fluor requirement for DAR<4 per mouse NGF monomer. Fluorescent dye Alexa Fluor 488, which due to its size and hydrophobicity is attached to NGF without using a spacer of any length binds to TrkA, is endocytosed after binding, and is transported retrogradely to the neuronal cell body. In FIG. 4, we show in vitro results for a “mixed DAR” 800-rhNGF of 1.64 which is expressed as an average of 1-4 dye molecules per monomer using standard analytical methods mass spectroscopy (MS) or high performance liquid chromatography (HPLC), in each case where the NT involved is a dimer. […] Survival. […] SGC neurons were harvested from E-21 Sprague Dawley rat pups."}, "[6]": {"system": "superior cervical ganglia (SCG) neurons", "experiment": "Neuronal survival assay in primary superior cervical ganglia neurons (compartmented cultures / microfluidic devices)", "format": "cell-based, rat", "settings": "FIG. 4 and FIG. 1C", "protocol": "In vitro systems that use primary neurons express Trk receptors on distal ends were used so that both survival and Trk binding activity may be assessed following synthetic manipulation in producing conjugates.\nConfirm Trk receptor binding. […] Receptor binding activity where up to 100× unmodified mNGF is co-administered with the Trk binding agent was determined. […] FIG. 1C: Neurons in compartmented cultures were given approximately 10 ng/mL fNGF (as determined by neuronal survival bioassay), or 10 ng/mL fNGF+100× excess unlabelled NFG (1000 ng/mL) in the distal axon compartments. 24 hours later fluorescence images of the cell bodies were obtained (FIG. 1C). […] Survival. […] SGC neurons were harvested from E-21 Sprague Dawley rat pups.\nDAR analytics were calculated using Reverse Phase High Performance Liquid Chromatography (RP-HPLC) and/or mass spectroscopy (MS). […] (FIG. 5)"}, "[7]": {"settings": "average ratio of about 3.1 per monomer"}}, "data": [{"molecule": "rhNGF: recombinant human NGF (nerve growth factor)", "values": [{"measurement": "Maximum Tolerated Dose (MTD)", "setting": "[1]", "value": 1, "unit": "µg/kg"}, {"measurement": "Stability in plasma (time stable)", "setting": "[2]", "value": "up to 4 days"}]}, {"molecule": "800-rhNGF: Dyomics DY-800 Near InfraRed (NIR) dye attached directly to recombinant human NGF (rhNGF)", "values": [{"measurement": "Retrograde transport to cell bodies (800 NIR labelled cell bodies visualized)", "setting": "[3]", "value": "retrogradedly transported"}]}, {"molecule": "B1", "values": [{"measurement": "Neuronal survival in primary neurons of Retinal Ganglion Cells", "setting": "[4]; FIG. 3", "value": "sustained neuronal survival"}, {"measurement": "Intraneuronal uptake", "setting": "[4]; [7]", "value": "intraneuronal uptake"}, {"measurement": "Trk binding", "setting": "[4]; [7]", "value": "Trk binding"}]}, {"molecule": "B2", "values": [{"measurement": "Accumulation of fluorescence in the cell bodies with 100× excess unlabelled NGF", "setting": "[5]; 10 ng/mL fNGF + 1000 ng/mL unlabelled NGF in distal axon compartments, 24 hours", "value": "effectively inhibited"}, {"measurement": "Uptake of fluorescent NGF at distal ends of neurons (TrkA-mediated endocytosis)", "setting": "[5]", "value": "endocytosed at the distal ends"}, {"measurement": "Uptake of fluorescent NGF at distal ends of neurons (TrkA-mediated endocytosis)", "setting": "[5]; listed as fNGF", "value": "specific, TrkA receptor-mediated process"}, {"measurement": "Survival of neurons", "setting": "[6]", "value": "sustained the survival of neurons"}]}]}
